The text below walks through data of patent US20180072804A1 (Hoffmann-La Roche, published 2018).

As usually defined, the EC50 is the concentration giving half of the maximal effect. For orientation: Kd means the constant that tells how readily two partners part at equilibrium.

“And” between values parts separate entries of the source, which are not always exact repeats. Equal entries are not always repeated. Where two headings read alike, the source gives them in different places.

For assay [1], the target named is T1, human TIM3, full length, on cells (human, UniProt Q8TDQ0 22-301). The assay is described as follows: FACS competition, RPMI-8226 cells; competitor Tim3_0018.
Assay [2] addresses T1, human TIM3, full length, on cells. The assay is described as follows: FACS competition, RPMI-8226 cells; competitor Tim3_0016.
The target is the same in assay [3]. As to the kind of experiment: FACS competition, RPMI-8226 cells; competitor Tim3_0026.
The target is the same in assay [4]. The assay is described as follows: FACS competition, RPMI-8226 cells; competitor Tim3_0028.
For assay [5] the target is unchanged. As to the kind of experiment: FACS, human CD14+ monocytes, donor3, 10 µg/ml.
For assay [6] the target is unchanged. The assay is described as follows: FACS competition, RPMI-8226 cells; competitor Tim3_0038.
Assay [7] has the same target. As to the kind of experiment: FACS, human CD14+ monocytes, donor2, 10 µg/ml. (In general: In flow cytometry, cells or beads pass a laser one at a time.)
Assay [8] shares this target. As to the kind of experiment: FACS competition, RPMI-8226 cells; competitor Tim3_0022.
Assay [9] has the same target. As to the kind of experiment: FACS, human CD14+ monocytes, donor1, 10 µg/ml.
Assay [10] has as its target cynomolgus TIM-3 on isolated cyno CD14+ monocytes (cynomolgus monkey). The assay is described as follows: FACS, cyno CD14+ monocytes, cyno2 (17435M).
The target is the same in assay [11]. As to the kind of experiment: FACS, cyno CD14+ monocytes, cyno3 (30085F).
Assay [12] has the same target. The assay is described as follows: FACS, cyno CD14+ monocytes, cyno1 (16719M).
In assay [13] the target is T1, human TIM3, full length, on cells. The assay is described as follows: FACS, human CD14+ monocytes, donor1, isotype control.
The target is the same in assay [14]. The assay is described as follows: FACS, human CD14+ monocytes, donor3, isotype control.
Assay [15] deals with cynomolgus TIM-3 on isolated cyno CD14+ monocytes (cynomolgus monkey). The assay is described as follows: FACS, cyno CD14+ monocytes, cyno2 (17435M), isotype control.
The target is the same in assay [16]. The assay is described as follows: FACS, cyno CD14+ monocytes, cyno1 (16719M), isotype control.
Assay [17] has as its target T1, human TIM3, full length, on cells. As to the kind of experiment: FACS, human CD14+ monocytes, donor2, isotype control.
Assay [18] has as its target cynomolgus TIM-3 on isolated cyno CD14+ monocytes (cynomolgus monkey). The assay is described as follows: FACS, cyno CD14+ monocytes, cyno3 (30085F), isotype control.
Assay [19] addresses monomeric cyno Tim3-ECD (cynomolgus). As to the kind of experiment: ELISA on cynomolgus Tim3. For orientation: ELISA stands for enzyme-linked immunosorbent assay.
In assay [20] the target is T2, monomeric human Tim3-ECD (human, UniProt Q8TDQ0 22-202).
T2 construct: also called huTim3; hu Tim3-ECD
As to the kind of experiment: SPR, Ab captured on anti-mouse IgG, 25 C.

Assay [21] deals with T3, Fc-tagged human Tim3-ECD dimer (human, UniProt Q8TDQ0 22-202).
T3 construct: also called huTim3Fc; huFc fused dimeric human Tim3-ECD
The assay is described as follows: SPR, Ab captured on anti-mouse IgG, 25 C. A general note: Surface plasmon resonance follows binding to a sensor surface in real time, without labels.

The target of assay [22] is monomeric cyno Tim3-ECD (cynomolgus). As to the kind of experiment: SPR, Ab captured on anti-mouse IgG, 25 C.
For assay [23], the target named is T1, human TIM3, full length, on cells. As to the kind of experiment: cell ELISA, CHO-K1 with full-length human Tim3.
Assay [24] shares this target. As to the kind of experiment: cell-based or functional assay.
In assay [25] the target is T4, Tim3-ECD-His-Biotin (human, UniProt Q8TDQ0 22-202, biotinylated with BirA Ligase).
T4 construct: Coated on streptavidin plates; also called human Tim3 (ELISA); Biochem Human
The assay is described as follows: ELISA on human Tim3.

For assay [26], the target named is T4, Tim3-ECD-His-Biotin. As to the kind of experiment: ELISA on Tim3-ECD-His-Biotin.
Protocol: After washing (3×90 μl/well with PBST-buffer) 25 μl/well sheep-anti-mouse-POD (GE NA9310V) was added in 1:9000 dilution and incubated at RT for 1 h while shaking at 400 rpm rotation. After washing (4×90 μl/well with PBST-buffer) 25 TMB substrate (Calbiochem, #CL07) was added and incubated until OD 1.5-2.5. Then the reaction was stopped by addition of 25 μl/well 1N HCL-solution.
Assay [27] addresses T5, cynomolgus TIM-3 on isolated cyno CD14+ monocytes (cynomolgus monkey, UniProt A0A2K5U3G7 22-294).
T5 construct: whole, on cells; also called cyno monocytes expressing TIM-3
T5 sequence: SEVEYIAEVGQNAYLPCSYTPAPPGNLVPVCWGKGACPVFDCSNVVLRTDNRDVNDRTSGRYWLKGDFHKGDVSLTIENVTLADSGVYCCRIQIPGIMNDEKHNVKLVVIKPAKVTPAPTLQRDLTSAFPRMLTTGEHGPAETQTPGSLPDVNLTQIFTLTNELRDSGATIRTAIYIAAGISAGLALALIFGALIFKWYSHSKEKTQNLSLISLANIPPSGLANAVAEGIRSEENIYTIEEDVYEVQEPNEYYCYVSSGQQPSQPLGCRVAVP
As to the kind of experiment: FACS, cyno CD14+ monocytes, cyno2 (17435M).
Description: (§1) CD14+ Monocytes were isolated from cynomolgus monkey anticoagulated peripheral blood (Covance) by density gradient centrifugation using Ficoll-Paque (GE Healthcare) (see General Protocols in the User Manuals or visit www.miltenyibiotec.com/protocols) and subsequent positive selection via NHP CD14 MicroBeads. First the CD14+ cells are magnetically labeled with CD14 MicroBeads. Then the cell suspension is loaded onto a MACS® Column which is placed in the magnetic field of a MACS Separator. The magnetically labeled CD14+ cells are retained in the column. The unlabeled cells run through, this cell fraction is depleted of CD14+ cells. After removal of the column from the magnetic field, the magnetically retained CD14+ cells can be eluted as the positively selected cell fraction. After centrifugation at 200×g for 10 min at room temperature the monocytes were harvested and used directly in binding assay or resuspended in freezing medium (10% DMSO, 90% FCS) at 1.0E+07 cells/ml and stored in liquid nitrogen.
(§2) After washing and centrifugation MFI signals of stained cells were analyzed by BD Biosciences FACSCanto flow cytometer.

The target in assay [28] is T1, human TIM3, full length, on cells. As to the kind of experiment: cell ELISA, CHO-K1 with full-length human Tim3.
The target of assay [29] is T5, cynomolgus TIM-3 on isolated cyno CD14+ …. As to the kind of experiment: FACS, cyno CD14+ monocytes, cyno1 (16719M).
Description: as §1, §2
Assay [30] shares this target. As to the kind of experiment: FACS, cyno CD14+ monocytes, cyno3 (30085F).
Description: as §1, §2
In assay [31] the target is T2, monomeric human Tim3-ECD. As to the kind of experiment: SPR, Ab captured on anti-mouse IgG, monomeric Tim3-ECD; monomer Tim3, not the Fc-tagged dimer.
The target of assay [32] is T3, Fc-tagged human Tim3-ECD dimer. As to the kind of experiment: SPR, Ab captured on anti-mouse IgG, dimeric Tim3-ECD-Fc.
Protocol: Therefore, an anti-mouse IgG was immobilized by amine coupling to the surface of a (BIAcore) CMS sensor chip. […] The sensor chip surface was regenerated after each analysis cycle. The equilibrium constant KD was finally gained by fitting the data to a 1:1 Langmuir interaction model.
The samples were injected for 30 seconds with a concentration of 200 μg/ml and bound to the spots 1 and 5 of each flow cell, allowing the measurement of eight samples in parallel. […] The flow rate was set to 30 μl/min for the whole run.
Finally the double referenced data was fitted to a 1:1 Langmuir interaction model with the BIAcore B4000 Evaluation Software.
Assay [33] has as its target T1, human TIM3, full length, on cells. The assay is described as follows: cell-based or functional assay. The source holds these as a separate data set.
For assay [34] the target is unchanged. As to the kind of experiment: cell ELISA, CHO-K1 with full-length human Tim3. This is another data set of the same source.
Protocol: Then the reaction was stopped by addition of 25 μl/well 1N HCL-solution.

Turning to “anti-human TIM-3 rat monoclonal antibody clone 344823 (R&D Systems)”, the Max % Inhibition of Binding in assay [1] came to 0%; in assay [2] it was 0%; in [3] it was 3%; in assay [4] it was 107%; in assay [6] it was 99%; in [8] it was 102%. In addition, the Specific Binding [MFI] turned out to be 814 MFI in assay [5]; 917 MFI in assay [7]; 1010 MFI in assay [9]; 121 MFI in [10]; 143 MFI in assay [11]; 158 MFI in assay [12].
On to M-IgG1 isotype control (antibody), for which the Specific Binding [MFI] in [13] was 144 MFI; in [14], 213 MFI; in assay [15] it was 82 MFI; in [16], 72 MFI; in assay [17], 55 MFI; in assay [18], 83 MFI.
For “anti-human TIM-3 mouse monoclonal antibody clone F38-2E2”, the concentration for a half-maximal effect (EC50) in [19] amounted to 0.423 µg/mL; in assay [23] it was 0.15 µg/mL; in the assay with Tim3-ECD-His-Biotin [25], 0.0732 µg/mL. The results for the Inflexion point (in assay [19]; in assay [23]; with Tim3-ECD-His-Biotin [25]) were 210000 ng/mL, 224 ng/mL and 88.3 ng/mL, respectively. Also, the dissociation constant Kd with monomeric human Tim3-ECD [20] came to 13.6 nM; in [21], 7.5 nM; in assay [22], 168 nM. For the same molecule, the Max % Inhibition of Binding in assay [1] is 6%; in [2], -7%; in [3], 2%; in assay [4], 75%; in assay [6] it was 94%; in [8] it was 77%. The Specific Binding [MFI] was determined as 460 MFI in assay [5]; 493 MFI in assay [7]; 516 MFI in assay [9]; 136 MFI in assay [10]; 124 MFI in assay [11]; 135 MFI in assay [12]. The IFNgamma release in MLR, % of rec hu IL-2 control, 1 µg/ml in assay [24] turned out to be 7%. In addition, in [24], the IFNgamma release in MLR, % of rec hu IL-2 control, 10 µg/ml came to 26%. The molecule further returned an IFNgamma release in MLR, % of rec hu IL-2 control, 40 µg/ml in assay [24] of 36%.
With Rat-IgG2A isotype control (antibody), the Specific Binding [MFI] in assay [13] was found to be 71 MFI; in assay [14], 70 MFI; in assay [15], 86 MFI; in assay [16], 84 MFI; in assay [17], 68 MFI; in assay [18] it was 91 MFI.

B1: anti-TIM3 antibody Tim3_0016 variant (Tim3_0018) (antibody, V domains shown)
VH: QVTLKESGPGILQPSQTLSLTCSFSGFSLSTSGMSVGWIRQPSGKGLEWLAHIWLNDDVFFNPALKRRLTISKDTSNNQVFLQIASVVTADTATYYCVRANGYLYALDYWGQGISVTVSS
VL: QIVLTQSPAIMSASPGQKVTITCSASSSVNYTQWYQQKLGSSPKLWIYDAFKLAPGVPARFSGSGTGTSYSLTISSMEAEDAASYFCHQWSSYPWTFGGGTKLEIK
notes: Mouse monoclonal from hybridoma; also called TIM3-0016 variant (0018); Tim3_0016 variant 0018-A488
B1: the 50% effective concentration (EC50) in assay [19] is 0.0146 µg/mL; with Tim3-ECD-His-Biotin [26], 0.56 nM and 0.094 µg/mL; in assay [28], 0.0264 µg/mL; with Tim3-ECD-His-Biotin [25] it was 0.0151 µg/mL; in [34], 0.52 nM and 0.087 µg/mL. Also, the Inflexion point stood at 14.6 ng/mL in [19], 29.4 ng/mL in assay [28] and 15.3 ng/mL in the assay with Tim3-ECD-His-Biotin [25]. Moreover, the equilibrium dissociation constant (Kd) came to 3.4 nM with monomeric human Tim3-ECD [20]; 1.11 nM in assay [21]; 41.9 nM in [22]; 3.4 nM with monomeric human Tim3-ECD [31]; 1.1 nM in assay [32]. The “Specific Binding [MFI]” value was found to be 480 MFI in assay [27]; 301 MFI in assay [29]; 417 MFI in [30]; 1940 MFI in assay [5]; 1820 MFI in assay [7]; 2330 MFI in assay [9]. For the same molecule, the “IFNgamma release in MLR, % of rec hu IL-2 control, 1 µg/ml” value in assay [33] turned out to be 12%. In addition, the “IFNgamma release in MLR, % of rec hu IL-2 control, 10 µg/ml” value in assay [33] is 30%. Further, the “IFNgamma release in MLR, % of rec hu IL-2 control, 40 µg/ml” value in [33] turned out to be 36%.
